Assay results taken from the supplement of paper PMC5998384.

Legend:
[1] = test system: HeLa Kyoto; assay: solubility change mitosis vs G1/S (difference of NP-40 vs SDS log2 ratios) (log2 ratio difference); higher = more soluble in mitosis
[2] = test system: HeLa Kyoto; assay: thermal stability score vs G1/S (z-score of summed log2 fold changes over temperatures); higher = more thermally stable than in G1/S
[3] = test system: HeLa Kyoto; assay: melting temperature (median over replicates), in situ; higher = more thermally stable
[4] = test system: HeLa Kyoto; assay: solubility in G1/S (NP-40 vs SDS abundance) (log2 ratio); higher = more soluble; details: cell cycle stage: G1/S
[5] = cell cycle stage: early G1 (4.5 h after nocodazole release)
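Wherever melting temperature (median over replicates), in situ is given: HeLa Kyoto cells synchronized by double thymidine or nocodazole block, proteins quantified by TMT10plex mass spectrometry, three independent biological replicates.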
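Wherever solubility change mitosis vs G1/S (difference of NP-40 vs SDS log2 ratios) is given: synchronized HeLa Kyoto cells (double thymidine block for G1/S, nocodazole release for mitosis), protein amounts in NP-40 versus SDS lysates quantified by mass spectrometry, three biological replicates.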
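Wherever solubility in G1/S (NP-40 vs SDS abundance) is given: HeLa Kyoto cells arrested at G1/S by double thymidine block, proteins quantified by TMT10plex mass spectrometry in mild NP-40 versus SDS extracts, three biological replicates.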
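Wherever thermal stability score vs G1/S (z-score of summed log2 fold changes over temperatures) is given: synchronized HeLa Kyoto cells, proteins quantified by TMT10plex mass spectrometry, three biological replicates, mitosis taken 0.5 h after nocodazole release, G1/S directly after double thymidine block.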

MDPSDFPSPFDPLTLPEKPLAGDLPVDMEFGEDLLESQTAPTRGWAPPGPSPSSGALDLLDTPAGLEKDPGVLDGATELLGLGGLLYKAPSPPEVDHGPEGTLAWDAGDQTLEPGPGGQTPEVVPPDPGAGANSCSPEGLLEPLAPDSPITLQSPHIEEEETTSIATARRGSPGQEEELPQGQPQSPNAPPSPSVGETLGDGINSSQTKPGGSSPPAHPSLPGDGLTAKASEKPPERKRSERVRRAEPPKPEVVDSTESIPVSDEDSDAMVDDPNDEDFVPFRPRRSPRMSLRSSVSQRAGRSAVGTKMTCAHCRTPLQKGQTAYQRKGLPQLFCSSSCLTTFSKKPSGKKTCTFCKKEIWNTKDSVVAQTGSGGSFHEFCTSVCLSLYEAQQQRPIPQSGDPADATRCSICQKTGEVLHEVSNGSVVHRLCSDSCFSKFRANKGLKTNCCDQCGAYIYTKTGSPGPELLFHEGQQKRFCNTTCLGAYKKKNTRVYPCVWCKTLCKNFEMLSHVDRNGKTSLFCSLCCTTSYKVKQAGLTGPPRPCSFCRRSLSDPCYYNKVDRTVYQFCSPSCWTKFQRTSPEGGIHLSCHYCHSLFSGKPEVLDWQDQVFQFCCRDCCEDFKRLRGVVSQCEHCRQEKLLHEKLRFSGVEKSFCSEGCVLLYKQDFTKKLGLCCITCTYCSQTCQRGVTEQLDGSTWDFCSEDCKSKYLLWYCKAARCHACKRQGKLLETIHWRGQIRHFCNQQCLLRFYSQQNQPNLDTQSGPESLLNSQSPESKPQTPSQTKVENSNTVRTPEENGNLGKIPVKTRSAPTAPTPPPPPPPATPRKNKAAMCKPLMQNRGVSCKVEMKSKGSQTEEWKPQVIVLPIPVPIFVPVPMHLYCQKVPVPFSMPIPVPVPMFLPTTLESTDKIVETIEELKVKIPSNPLEADILAMAEMIAEAEELDKASSDLCDLVSNQSAEGLLEDCDLFGPARDDVLAMAVKMANVLDEPGQDLEADFPKNPLDINPSVDFLFDCGLVGPEDVSTEQDLPRTMRKGQKRLVLSESCSRDSMSSQPSCTGLNYSYGVNAWKCWVQSKYANGETSKGDELRFGPKPMRIKEDILACSAAELNYGLAQFVREITRPNGERYEPDSIYYLCLGIQQYLLENNRMVNIFTDLYYLTFVQELNKSLSTWQPTLLPNNTVFSRVEEEHLWECKQLGVYSPFVLLNTLMFFNTKFFGLQTAEEHMQLSFTNVVRQSRKCTTPRGTTKVVSIRYYAPVRQRKGRDTGPGKRKREDEAPILEQRENRMNPLRCPVKFYEFYLSKCPESLRTRNDVFYLQPERSCIAESPLWYSVIPMDRSMLESMLNRILAVREIYEELGRPGEEDLD [ZMYM3]
solubility change mitosis (log2) [1]: 0.169 | thermal stability score [2, 5]: 0.311 | thermal stability score ([2]; cell cycle stage: mitosis): 1.4 | melting temperature ([3]; cell cycle stage: G1/S): 49.3 °C | melting temperature ([3]; cell cycle stage: mitosis): 50.6 °C | solubility in G1/S (log2) [4]: -0.523

MDRNPSPPPPGRDKEEEEEVAGGDCIGSTVYSKHWLFGVLSGLIQIVSPENTKSSSDDEEQLTELDEEMENEICRVWDMSMDEDVALFLQEFNAPDIFMGVLAKSKCPRLREICVGILGNMACFQEICVSISSDKNLGQVLLHCLYDSDPPTLLETSRLLLTCLSQAEVASVWVERIQEHPAIYDSICFIMSSSTNVDLLVKVGEVVDKLFDLDEKLMLEWVRNGAAQPLDQPQEESEEQPVFRLVPCILEAAKQVRSENPEWLDVYMHILQLLTTVDDGIQAIVHCPDTGKDIWNLLFDLVCHEFCQSDDPPIILQEQKTVLASVFSVLSAIYASQTEQEYLKIEKVDLPLIDSLIRVLQNMEQCQKKPENSAESNTEETKRTDLTQDDFHLKILKDILCEFLSNIFQALTKETVAQGVKEGQLSKQKCSSAFQNLLPFYSPVVEDFIKILREVDKALADDLEKNFPSLKVQT [SAAL1]
solubility change mitosis (log2) [1]: 0.00183 | thermal stability score [2, 5]: 0.137 | thermal stability score ([2]; cell cycle stage: mitosis): 0.212 | melting temperature ([3]; cell cycle stage: G1/S): 52.3 °C | melting temperature ([3]; cell cycle stage: mitosis): 50.6 °C | solubility in G1/S (log2) [4]: 0.294

MDRRSMGETESGDAFLDLKKPPASKCPHRYTKEELLDIKELPHSKQRPSCLSEKYDSDGVWDPEKWHASLYPASGRSSPVESLKKELDTDRPSLVRRIVDPRERVKEDDLDVVLSPQRRSFGGGCHVTAAVSSRRSGSPLEKDSDGLRLLGGRRIGSGRIISARTFEKDHRLSDKDLRDLRDRDRERDFKDKRFRREFGDSKRVFGERRRNDSYTEEEPEWFSAGPTSQSETIELTGFDDKILEEDHKGRKRTRRRTASVKEGIVECNGGVAEEDEVEVILAQEPAADQEVPRDAVLPEQSPGDFDFNEFFNLDKVPCLASMIEDVLGEGSVSASRFSRWFSNPSRSGSRSSSLGSTPHEELERLAGLEQAILSPGQNSGNYFAPIPLEDHAENKVDILEMLQKAKVDLKPLLSSLSANKEKLKESSHSGVVLSVEEVEAGLKGLKVDQQVKNSTPFMAEHLEETLSAVTNNRQLKKDGDMTAFNKLVSTMKASGTLPSQPKVSRNLESHLMSPAEIPGQPVPKNILQELLGQPVQRPASSNLLSGLMGSLEPTTSLLGQRAPSPPLSQVFQTRAASADYLRPRIPSPIGFTPGPQQLLGDPFQGMRKPMSPITAQMSQLELQQAALEGLALPHDLAVQAANFYQPGFGKPQVDRTRDGFRNRQQRVTKSPAPVHRGNSSSPAPAASITSMLSPSFTPTSVIRKMYESKEKSKEEPASGKAALGDSKEDTQKASEENLLSSSSVPSADRDSSPTTNSKLSALQRSSCSTPLSQANRYTKEQDYRPKATGRKTPTLASPVPTTPFLRPVHQVPLVPHVPMVRPAHQLHPGLVQRMLAQGVHPQHLPSLLQTGVLPPGMDLSHLQGISGPILGQPFYPLPAASHPLLNPRPGTPLHLAMVQQQLQRSVLHPPGSGSHAAAVSVQTTPQNVPSRSGLPHMHSQLEHRPSQRSSSPVGLAKWFGSDVLQQPLPSMPAKVISVDELEYRQ [EIF4ENIF1]
solubility change mitosis (log2) [1]: 0.0657 | thermal stability score [2, 5]: -0.104 | thermal stability score ([2]; cell cycle stage: mitosis): 0.531 | melting temperature ([3]; cell cycle stage: G1/S): 50.3 °C | melting temperature ([3]; cell cycle stage: mitosis): 49.3 °C | solubility in G1/S (log2) [4]: 0.0256

MDSLEEPQKKVFKARKTMRVSDRQQLEAVYKVKEELLKTDVKLLNGNHENGDLDPTSPLENMDYIKDKEEVNGIEEICFDPEGSKAEWKETPCILSVNVKNKQDDDLNCEPLSPHNITPEPVSKLPAEPVSGDPAPGDLDAGDPASGVLASGDSTSGDPTSSEPSSSDAASGDATSGDAPSGDVSPGDATSGDATADDLSSGDPTSSDPIPGEPVPVEPISGDCAADDIASSEITSVDLASGAPASTDPASDDLASGDLSSSELASDDLATGELASDELTSESTFDRTFEPKSVPVCEPVPEIDNIEPSSNKDDDFLEKNGADEKLEQIQSKDSLDEKNKADNNIDANEETLETDDTTICSDRPPENEKKVEEDIITELALGEDAISSSMEIDQGEKNEDETSADLVETINENVIEDNKSENILENTDSMETDEIIPILEKLAPSEDELTCFSKTSLLPIDETNPDLEEKMESSFGSPSKQESSESLPKEAFLVLSDEEDISGEKDESEVISQNETCSPAEVESNEKDNKPEEEEQVIHEDDERPSEKNEFSRRKRSKSEDMDNVQSKRRRYMEEEYEAEFQVKITAKGDINQKLQKVIQWLLEEKLCALQCAVFDKTLAELKTRVEKIECNKRHKTVLTELQAKIARLTKRFEAAKEDLKKRHEHPPNPPVSPGKTVNDVNSNNNMSYRNAGTVRQMLESKRNVSESAPPSFQTPVNTVSSTNLVTPPAVVSSQPKLQTPVTSGSLTATSVLPAPNTATVVATTQVPSGNPQPTISLQPLPVILHVPVAVSSQPQLLQSHPGTLVTNQPSGNVEFISVQSPPTVSGLTKNPVSLPSLPNPTKPNNVPSVPSPSIQRNPTASAAPLGTTLAVQAVPTAHSIVQATRTSLPTVGPSGLYSPSTNRGPIQMKIPISAFSTSSAAEQNSNTTPRIENQTNKTIDASVSKKAADSTSQCGKATGSDSSGVIDLTMDDEESGASQDPKKLNHTPVSTMSSSQPVSRPLQPIQPAPPLQPSGVPTSGPSQTTIHLLPTAPTTVNVTHRPVTQVTTRLPVPRAPANHQVVYTTLPAPPAQAPLRGTVMQAPAVRQVNPQNSVTVRVPQTTTYVVNNGLTLGSTGPQLTVHHRPPQVHTEPPRPVHPAPLPEAPQPQRLPPEAASTSLPQKPHLKLARVQSQNGIVLSWSVLEVDRSCATVDSYHLYAYHEEPSATVPSQWKKIGEVKALPLPMACTLTQFVSGSKYYFAVRAKDIYGRFGPFCDPQSTDVISSTQSS [ATF7IP]
solubility change mitosis (log2) [1]: -0.146 | thermal stability score [2, 5]: 0.103 | thermal stability score ([2]; cell cycle stage: mitosis): 1.25 | melting temperature ([3]; cell cycle stage: G1/S): 49 °C | melting temperature ([3]; cell cycle stage: mitosis): 49.8 °C | solubility in G1/S (log2) [4]: 0.0405

MDSNTAPLGPSCPQPPPAPQPQARSRLNATASLEQERSERPRAPGPQAGPGPGVRDAAAPAEPQAQHTRSRERADGTGPTKGDMEIPFEEVLERAKAGDPKAQTEVGKHYLQLAGDTDEELNSCTAVDWLVLAAKQGRREAVKLLRRCLADRRGITSENEREVRQLSSETDLERAVRKAALVMYWKLNPKKKKQVAVAELLENVGQVNEHDGGAQPGPVPKSLQKQRRMLERLVSSESKNYIALDDFVEITKKYAKGVIPSSLFLQDDEDDDELAGKSPEDLPLRLKVVKYPLHAIMEIKEYLIDMASRAGMHWLSTIIPTHHINALIFFFIVSNLTIDFFAFFIPLVIFYLSFISMVICTLKVFQDSKAWENFRTLTDLLLRFEPNLDVEQAEVNFGWNHLEPYAHFLLSVFFVIFSFPIASKDCIPCSELAVITGFFTVTSYLSLSTHAEPYTRRALATEVTAGLLSLLPSMPLNWPYLKVLGQTFITVPVGHLVVLNVSVPCLLYVYLLYLFFRMAQLRNFKGTYCYLVPYLVCFMWCELSVVILLESTGLGLLRASIGYFLFLFALPILVAGLALVGVLQFARWFTSLELTKIAVTVAVCSVPLLLRWWTKASFSVVGMVKSLTRSSMVKLILVWLTAIVLFCWFYVYRSEGMKVYNSTLTWQQYGALCGPRAWKETNMARTQILCSHLEGHRVTWTGRFKYVRVTDIDNSAESAINMLPFFIGDWMRCLYGEAYPACSPGNTSTAEEELCRLKLLAKHPCHIKKFDRYKFEITVGMPFSSGADGSRSREEDDVTKDIVLRASSEFKSVLLSLRQGSLIEFSTILEGRLGSKWPVFELKAISCLNCMAQLSPTRRHVKIEHDWRSTVHGAVKFAFDFFFFPFLSAA [WFS1]
solubility change mitosis (log2) [1]: -0.183 | thermal stability score [2, 5]: 2.34 | thermal stability score ([2]; cell cycle stage: mitosis): 3.05 | melting temperature ([3]; cell cycle stage: G1/S): 51.7 °C | melting temperature ([3]; cell cycle stage: mitosis): 52.2 °C | solubility in G1/S (log2) [4]: 0.109

MDSRYNSTAGIGDLNQLSAAIPATRVEVSVSCRNLLDRDTFSKSDPICVLYVQGVGNKEWREFGRTEVIDNTLNPDFVRKFILDYFFEERENLRFDLYDVDSKSPNLSKHDFLGQVFCTLGEIVGSQGSRLEKPIVGIPGKKCGTIILTAEELNCCRDAVLMQFCANKLDKKDFFGKSDPFLVFYRSNEDGSFTICHKTEVVKNTLNPVWQAFKISVRALCNGDYDRTIKVEVYDWDRDGSHDFIGEFTTSYRELSRGQSQFNVYEVVNPKKKGKKKKYTNSGTVTLLSFLVETEVSFLDYIKGGTQINFTVAIDFTASNGNPAQPTSLHYMNPYQLNAYGMALKAVGEIVQDYDSDKMFPALGFGAKLPPDGRISHEFALNGNPQNPYCDGIEGVMEAYYRSLKSVQLYGPTNFAPVINHVARYASSVKDGSQYFVLLIVTDGVISDMAQTKESIVNASKLPMSIIIVGVGPAEFDAMVELDGDDVRVSSRGKYAERDIVQFVPFRDYIDRSGNHILSMARLAKDVLAEIPEQFLSYMRARGIKPSPAPPPYTPPTHVLQTQI [CPNE8]
solubility change mitosis (log2) [1]: -0.135 | thermal stability score [2, 5]: 1.74 | thermal stability score ([2]; cell cycle stage: mitosis): 5.6 | melting temperature ([3]; cell cycle stage: G1/S): 54.1 °C | melting temperature ([3]; cell cycle stage: mitosis): 53 °C | solubility in G1/S (log2) [4]: -1.4
